# Laboratory results from patent publication EP4786489A1, “IL-22 MUTANT, PREPARATION METHOD THEREFOR, AND USE THEREOF” (Nanjing Novoacine Biotechnology Co., Ltd., priority 2023, dated 2025).
# Experiments:
# STAT3 = STAT3 phosphorylation in HaCaT cells by FACS (tissue activation preference); type: cell-based, Human; settings: STAT3 activation in HT29 vs HaCaT cells
# Protocol: Human immortalized keratinocyte HaCaT cells were recovered and cultured in MEM/EBSS medium (Cytiva, SH30024.01) supplemented with 15% FBS and 1% P/S (Cytiva, SV30010). When cell confluence reached 70%-80%, cells were digested with 0.25% Trypsin-EDTA (Gibco, 25200-056), terminated with complete medium, and resuspended to […]. After mixed thoroughly, a total of 120 µL per well cells was seeded into a 96-well plate (Corning, 3599) at a density of 1.5 × 10^5 cells per well and incubated overnight at 37°C with 5% CO2.
# wt IL-22 was prepared at an initial working concentration of 1000 nM, and the remaining samples were prepared at 10000 nM as the starting concentration. […] After staining at room temperature in the dark for 1 hour, cells were washed twice with 1× PBS and analyzed by flow cytometry to determine the mean fluorescence intensity (MFI).
# Tissue activation preference of different test candidates was evaluated by comparing their ability to activate STAT3 in intestinal-derived HT29 cells and skin-derived HaCaT cells. […] The activity of PEGylated IL-22 mutants in activating STAT3 phosphorylation in HaCaT cells at different concentrations as determined by FACS is shown in Figure 8. […] Tissue preference of PEG-IL22 mutants for STAT3 phosphorylation in human intestinal and human skin cell lines determined by FACS
# Reg3β = experiment: Mouse PD: plasma Reg3β after single administration (ELISA); type: in vivo; parameters: Reg3βCmax: unit not given here; settings: for Reg3βCmax: mouse plasma, wt IL-22 i.p.
# Protocol: The ELISA method was used to determine the baseline levels and post-dose changes of the biomarker Reg3β in plasma samples before and after administration of different test candidates.
# For the preferable test candidates, one mouse per dose group was subcutaneously injected at 0.5, 1, or 3 mg/kg. The control molecules were IL-22-Fc, administered subcutaneously at 0.3 and 1 mg/kg, and wt IL-22, administered intraperitoneally at the corresponding doses.
# Approximately 40 µL of orbital blood was collected with anticoagulation on the day before dosing and at 4, 24, 48, 96, 144, 192, 264, 336, and 408 hours after dosing, followed by plasma separation. ELISA plates were coated overnight at 4°C with 1 µg/mL anti-Reg3β (Sino Biological, 51153-R065) dissolved in PBS. Mouse Reg3β (Sino Biological, 51153-M08H) was serially diluted to generate a positive control standard curve. Plasma samples were appropriately diluted to fall within the linear range of the standard curve. After blocking, samples were added and incubated for 2 hours. Incubation was then performed with the secondary antibody sheep anti-mouse Reg3β (R&D Systems, AF5110-SP) and HRP-conjugated antibody (HRP-Rabbit anti-sheep IgG H&L, Abcam, Ab97130). After final washing, tetramethylbenzidine peroxidase substrate (TMB, Surmodics, TMBS-1000-01) was added for color development for 10 minutes. The reaction was terminated with 2 M sulfuric acid, and absorbance was read at 450 nm with 630 nm as reference using a microplate reader. The original concentrations of Reg3β in each sample were calculated. Concentration versus time curves were plotted (Figure 9).
# SAA = experiment: Mouse PD preference study: plasma SAA; type: in vivo, mice; settings: at equivalent or superior Reg3β Cmax: 60K-PEG-IL22-D109C 0.1 mg/kg vs 60K-PEG-IL22-P120C 0.3 mg/kg vs IL-22-Fc 1 mg/kg, s.c.
# Protocol: Based on the in vitro preference results and preliminary PD screening results, the molecules 60k-PEG-IL22-D109C and 60k-PEG-IL22-P120C were selected. PD testing was performed in three mice per dose group at different dose levels according to the method described in Example 14, including the pharmacodynamic-related molecule Reg3β and the inflammation-related molecule SAA. The control was IL-22-Fc. Blood samples were collected before dosing and at 4, 24, 48, 72, 96, 144, 192, 264, and 336 hours after dosing. Plasma was separated using anticoagulated blood samples. For the control molecules wt IL-22 and hB3-his, samples were collected only up to 96 hours.
# The detection method for SAA was as follows: a kit containing detecting antibody pairs and positive controls (Abcam, Ab216059) was used to detect SAA concentrations in appropriately diluted plasma samples. The assay was performed according to the manufacturer's instructions. Sa-HRP (Pierce 21126) was used for conjugation. After washing, tetramethylbenzidine peroxidase substrate (TMB, Surmodics, TMBS-1000-01) was added for color development for 10 minutes. The reaction was terminated with 2 M sulfuric acid, and the plate was read at 450 nm with 630 nm as the reference using a microplate reader. SAA was measured before dosing and at 24, 48, 72, 96, and 144 hours after dosing. The original SAA concentration in each sample was calculated. […]
# [1] = Mouse PK, plasma concentration by ELISA; type: in vivo; settings: single s.c. 1 mg/kg, male Balb/C mice
# Protocol: Male Balb/C mice (n = 4 per group) were administered a single subcutaneous injection at a dose of 1 mg/kg. Blood samples were collected before dosing and at 4 (no samples were collected at this time point for 60k-PEG-IL22-D109C and 60k-PEG-IL22-P120C), 8, 24, […], 48, 72, 96, and 120 hours after dosing. Anticoagulated blood was used to prepare plasma.
# The concentrations of each test candidate in plasma were quantified by ELISA. Anti-IL22 Antibody (Sino Biological, 13059-MM24), diluted in PBS to 2 µg/mL, was used for coating. Standard curves of each test candidate and plasma samples were diluted to fall within the linear range of detection. Recombinant Anti-IL22 Antibody (Sino Biological, 13059-R034-H) was used for detection. The original concentration of each test candidate in the samples was calculated using a four-parameter fit of the standard curve for each test candidate. Pharmacokinetic parameters of each test candidate in mouse plasma were analyzed (Figure 12). Table 13. Dosing information for the mouse PK study
molecule,measurement,setting,value
"60K-PEG-IL22-D109C: IL-22 cysteine mutant, conjugation site 76, PEG-maleimide 60kD (conjugate) APISSHCRLDKSNFQQPYITNRTFMLAKEASLADNNTDVRLIGEKLFHGVSMSERCYLMKQVLNFTLEEVLFPQSCRFQPYMQEVVPFLARLSNRLSTCHIEGDDLHIQRNVQKLKDTVKKLGESGEIKAIGELDLLFMSLRNACI",tissue preference compared with IL-22-Fc,STAT3,superior tissue preference
same,Normalized Cmax ratio of Reg3β (relative to IL-22-Fc),Reg3β; 0.5mg/kg single dose vs IL-22-Fc 0.3 mg/kg,329%
same,Reg3βCmax,"Reg3β; 0.5mg/kg single dose, test candidates s.c., one mouse per dose group",52.0
same,Normalized Cmax ratio of Reg3β (relative to IL-22-Fc),Reg3β; 1mg/kg single dose,251%
same,Reg3βCmax,"Reg3β; 1mg/kg single dose, s.c.",82.9
same,Reg3βCmax,"Reg3β; 3mg/kg single dose, s.c.",73.4
same,peak concentrations of Reg3β stimulation compared with IL-22-Fc,Reg3β; similar (0.5 mg/kg vs. 0.3 mg/kg) or identical (1 mg/kg) doses,higher peak concentrations
same,SAA Cmax compared with IL-22-Fc,SAA,significantly lower
same,AUClast,[1],301.5835 µg·h/mL
same,Cmax,[1],5460.625 ng/mL
same,MRT,[1],41.39 h
same,T1/2,[1],21.6 h
